# In US20120282612A1:
# What was measured:
# [1] = biological target: PSA in seminal fluid of normal men (human) (UniProt P07288); assay: MAA-Sepharose column, 5 ng purified PSA applied, 3.5 ng recovered in all fractions
# [2] = biological target: PSA (prostate specific antigen) in serum of prostatic hypertrophy patient (human) (UniProt P07288); assay: TJA-II-Sepharose column, serum of prostatic hypertrophy patient 1; total PSA immunoassay of fractions
# [3] = biological target: PSA (prostate specific antigen) in serum of prostatic hypertrophy patient (human) (UniProt P07288); assay: TJA-II-Sepharose column, serum of prostatic hypertrophy patient 6; total PSA immunoassay of fractions
# [4] = biological target: PSA (prostate specific antigen) in serum of prostate cancer patient (human) (UniProt P07288); assay: TJA-II-Sepharose column, serum of prostate cancer patient 15; total PSA immunoassay of fractions
# [5] = biological target: PSA (prostate specific antigen) in serum of prostate cancer patient (human) (UniProt P07288); assay: TJA-II-Sepharose column, serum of prostate cancer patient 11; total PSA immunoassay of fractions
# [6] = biological target: Sialidase-treated PSA in serum of prostate cancer patient (human) (UniProt P07288); assay: TJA-II-Sepharose column, sialidase-treated sample
# [7] = biological target: Sialidase-treated PSA in serum of prostatic hypertrophy patient (human) (UniProt P07288); assay: TJA-II-Sepharose column, sialidase-treated sample
# [8] = biological target: Sialidase-treated PSA in seminal fluid of normal men (human) (UniProt P07288); assay: TJA-II-Sepharose column, sialidase-treated sample
# [9] = biological target: PSA (prostate specific antigen) in serum of prostatic hypertrophy patient (human) (UniProt P07288); assay: TJA-II-Sepharose column, 20 sera of prostatic hypertrophy patients
# [10] = biological target: PSA (prostate specific antigen) in serum of prostate cancer patient (human) (UniProt P07288); assay: TJA-II-Sepharose column, before sialidase treatment (Table 4 prints 16%)
# [11] = biological target: PSA (prostate specific antigen) in serum of prostate cancer patient (human) (UniProt P07288); assay: TJA-II-Sepharose column, serum of prostate cancer patient 14; total PSA immunoassay of fractions
# [12] = biological target: PSA (prostate specific antigen) in serum of prostate cancer patient (human) (UniProt P07288); assay: TJA-II-Sepharose column, serum of prostate cancer patient 12; total PSA immunoassay of fractions
# [13] = biological target: PSA (prostate specific antigen) in serum of prostatic hypertrophy patient (human) (UniProt P07288); assay: TJA-II-Sepharose column, serum of prostatic hypertrophy patient 2; total PSA immunoassay of fractions
# [14] = biological target: PSA (prostate specific antigen) in serum of prostate cancer patient (human) (UniProt P07288); assay: TJA-II-Sepharose column, serum of prostate cancer patient 7; total PSA immunoassay of fractions
# [15] = biological target: PSA (prostate specific antigen) in serum of prostate cancer patient (human) (UniProt P07288); assay: TJA-II-Sepharose column, serum of prostate cancer patient 5; total PSA immunoassay of fractions
# [16] = biological target: PSA (prostate specific antigen) in serum of prostate cancer patient (human) (UniProt P07288); assay: TJA-II-Sepharose column, serum of prostate cancer patient 3; total PSA immunoassay of fractions
# [17] = biological target: PSA (prostate specific antigen) in serum of prostatic hypertrophy patient (human) (UniProt P07288); assay: TJA-II-Sepharose column, binding rate of PSA
# [18] = biological target: PSA in seminal fluid of normal men (human) (UniProt P07288); assay: TJA-II-Sepharose column, binding rate of PSA
# [19] = biological target: PSA (prostate specific antigen) in serum of prostate cancer patient (human) (UniProt P07288); assay: TJA-II-Sepharose column, binding rate of PSA
# [20] = biological target: PSA (prostate specific antigen) in serum of prostate cancer patient (human) (UniProt P07288); assay: TJA-II-Sepharose column, serum of prostate cancer patient 1; total PSA immunoassay of fractions
# [21] = biological target: PSA (prostate specific antigen) in serum of prostatic hypertrophy patient (human) (UniProt P07288); assay: TJA-II-Sepharose column, serum of prostatic hypertrophy patient 8; total PSA immunoassay of fractions
# [22] = biological target: PSA (prostate specific antigen) in serum of prostate cancer patient (human) (UniProt P07288); assay: TJA-II-Sepharose column, serum of prostate cancer patient 8; total PSA immunoassay of fractions
# [23] = biological target: PSA (prostate specific antigen) in serum of prostatic hypertrophy patient (human) (UniProt P07288); assay: TJA-II-Sepharose column, serum of prostatic hypertrophy patient 4; total PSA immunoassay of fractions
# [24] = biological target: PSA (prostate specific antigen) in serum of prostate cancer patient (human) (UniProt P07288); assay: TJA-II-Sepharose column, serum of prostate cancer patient 4; total PSA immunoassay of fractions
# [25] = biological target: PSA (prostate specific antigen) in serum of prostate cancer patient (human) (UniProt P07288); assay: TJA-II-Sepharose column, 20 sera of prostate cancer patients
# [26] = biological target: PSA (prostate specific antigen) in serum of prostate cancer patient (human) (UniProt P07288); assay: TJA-II-Sepharose column, serum of prostate cancer patient 9; total PSA immunoassay of fractions
# [27] = biological target: PSA (prostate specific antigen) in serum of prostate cancer patient (human) (UniProt P07288); assay: TJA-II-Sepharose column, serum of prostate cancer patient 10; total PSA immunoassay of fractions
# [28] = biological target: PSA (prostate specific antigen) in serum of prostatic hypertrophy patient (human) (UniProt P07288); assay: TJA-II-Sepharose column, serum of prostatic hypertrophy patient 9; total PSA immunoassay of fractions
# [29] = biological target: PSA (prostate specific antigen) in serum of prostatic hypertrophy patient (human) (UniProt P07288); assay: TJA-II-Sepharose column, serum of prostatic hypertrophy patient 3; total PSA immunoassay of fractions
# [30] = biological target: PSA (prostate specific antigen) in serum of prostate cancer patient (human) (UniProt P07288); assay: TJA-II-Sepharose column, serum of prostate cancer patient 2; total PSA immunoassay of fractions
# [31] = biological target: PSA (prostate specific antigen) in serum of prostatic hypertrophy patient (human) (UniProt P07288); assay: TJA-II-Sepharose column, serum of prostatic hypertrophy patient 7; total PSA immunoassay of fractions
# [32] = biological target: PSA (prostate specific antigen) in serum of prostatic hypertrophy patient (human) (UniProt P07288); assay: TJA-II-Sepharose column, serum of prostatic hypertrophy patient 5; total PSA immunoassay of fractions
# [33] = biological target: PSA (prostate specific antigen) in serum of prostate cancer patient (human) (UniProt P07288); assay: TJA-II-Sepharose column, serum of prostate cancer patient 6; total PSA immunoassay of fractions
# [34] = biological target: PSA (prostate specific antigen) in serum of prostate cancer patient (human) (UniProt P07288); assay: TJA-II-Sepharose column, serum of prostate cancer patient 13; total PSA immunoassay of fractions
# [35] = biological target: PSA (prostate specific antigen) in serum of prostate cancer patient (human) (UniProt P07288); assay: UEA-I agarose column, binding rate of PSA
# [36] = biological target: PSA (prostate specific antigen) in serum of prostate cancer patient (human) (UniProt P07288); assay: WFA-Sepharose column, binding rate of PSA
# [37] = biological target: PSA (prostate specific antigen) in serum of prostate cancer patient (human) (UniProt P07288); assay: WFA-Sepharose column, serum of prostate cancer patient 12; total PSA immunoassay of fractions
# [38] = biological target: PSA (prostate specific antigen) in serum of prostate cancer patient (human) (UniProt P07288); assay: WFA-Sepharose column, serum of prostate cancer patient 15; total PSA immunoassay of fractions
# [39] = biological target: PSA (prostate specific antigen) in serum of prostate cancer patient (human) (UniProt P07288); assay: WFA-Sepharose column, serum of prostate cancer patient 6; total PSA immunoassay of fractions
# Maackia amurensis agglutinin, sequence (P0DKL3 30-278): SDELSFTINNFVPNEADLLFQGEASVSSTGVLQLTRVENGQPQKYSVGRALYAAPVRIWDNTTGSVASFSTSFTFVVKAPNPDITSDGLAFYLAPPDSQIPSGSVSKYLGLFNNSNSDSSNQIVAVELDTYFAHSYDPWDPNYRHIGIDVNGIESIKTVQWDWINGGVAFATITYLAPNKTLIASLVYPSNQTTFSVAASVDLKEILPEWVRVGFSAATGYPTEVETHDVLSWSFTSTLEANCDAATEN
substance,measurement,setting,value
Maackia amurensis agglutinin,percent considered bound to the column,[1],30%
Trichosanthes japonica agglutinin-II,TJA-II binding ratio,[2],1.2%
same,TJA-II-bound PSA in serum sample,[2],0.2 ng/mL
same,TJA-II binding ratio,[3],1.8%
same,TJA-II-bound PSA in serum sample,[3],0.17 ng/mL
same,TJA-II binding ratio,[4],5%
same,TJA-II-bound PSA in serum sample,[4],0.61 ng/mL
same,TJA-II binding ratio,[5],23%
same,TJA-II-bound PSA in serum sample,[5],1.04 ng/mL
same,binding rate,[6],59%
same,binding rate,[7],2%
same,binding rate,[8],8.4%
same,TJA-II binding rate,[9],< 2%
same,binding rate,[10],11%
same,TJA-II binding ratio,[11],4%
same,TJA-II-bound PSA in serum sample,[11],0.85 ng/mL
same,TJA-II binding ratio,[12],8%
same,TJA-II-bound PSA in serum sample,[12],4.3 ng/mL
same,TJA-II binding ratio,[13],< 0.05%
same,TJA-II binding ratio,[14],8.2%
same,TJA-II-bound PSA in serum sample,[14],5.58 ng/mL
same,TJA-II binding ratio,[15],7%
same,TJA-II-bound PSA in serum sample,[15],6.3 ng/mL
same,TJA-II binding ratio,[16],3%
same,TJA-II-bound PSA in serum sample,[16],2.4 ng/mL
same,binding rate,[17],2%
same,binding rate,[18],2%
same,binding rate,[19],16%
same,TJA-II binding ratio,[20],6.4%
same,TJA-II-bound PSA in serum sample,[20],128 ng/mL
same,TJA-II binding ratio,[21],1%
same,TJA-II-bound PSA in serum sample,[21],0.09 ng/mL
same,TJA-II binding ratio,[22],21%
same,TJA-II-bound PSA in serum sample,[22],0.9 ng/mL
same,TJA-II binding ratio,[23],0.6%
same,TJA-II-bound PSA in serum sample,[23],0.04 ng/mL
same,TJA-II binding ratio,[24],4.5%
same,TJA-II-bound PSA in serum sample,[24],9.5 ng/mL
same,TJA-II binding rate,[25],> 2%
same,TJA-II binding ratio,[26],14%
same,TJA-II-bound PSA in serum sample,[26],0.84 ng/mL
same,TJA-II binding ratio,[27],4.6%
same,TJA-II-bound PSA in serum sample,[27],0.46 ng/mL
same,TJA-II binding ratio,[28],< 0.05%
same,TJA-II binding ratio,[29],0.2%
same,TJA-II-bound PSA in serum sample,[29],0.02 ng/mL
same,TJA-II binding ratio,[30],5%
same,TJA-II-bound PSA in serum sample,[30],6.6 ng/mL
same,TJA-II binding ratio,[31],< 0.05%
same,TJA-II binding ratio,[32],1.5%
same,TJA-II-bound PSA in serum sample,[32],0.12 ng/mL
same,TJA-II binding ratio,[33],10.8%
same,TJA-II-bound PSA in serum sample,[33],388 ng/mL
same,TJA-II binding ratio,[34],5%
same,TJA-II-bound PSA in serum sample,[34],0.24 ng/mL
Ulex europaeus agglutinin-1 (from UniProt P22972 1-243),binding rate,[35],5%
Wisteria floribunda agglutinin,binding rate,[36],11%
same,WFA binding ratio,[37],7.5%
same,WFA-bound PSA in serum sample,[37],3.91 ng/mL
same,WFA binding ratio,[38],4.2%
same,WFA-bound PSA in serum sample,[38],0.49 ng/mL
same,WFA binding ratio,[39],9.4%
same,WFA-bound PSA in serum sample,[39],328 ng/mL
